Measured values: CN113072642A (FUZHOU MAIXIN BIOTECHNOLOGY DEV CO LTD, dated 2021)

Molecular target: T1, OCT3/4蛋白 (in tissue sections, immunohistochemistry) (human, UniProt Q01860 1-360, limits assumed)
T1 construct: Endogenous antigen in tumour and normal tissue chips; also called OCT3/4抗原
Test: immunohistochemistry on tumour tissue chip

T1 sequence (Q01860 whole entry): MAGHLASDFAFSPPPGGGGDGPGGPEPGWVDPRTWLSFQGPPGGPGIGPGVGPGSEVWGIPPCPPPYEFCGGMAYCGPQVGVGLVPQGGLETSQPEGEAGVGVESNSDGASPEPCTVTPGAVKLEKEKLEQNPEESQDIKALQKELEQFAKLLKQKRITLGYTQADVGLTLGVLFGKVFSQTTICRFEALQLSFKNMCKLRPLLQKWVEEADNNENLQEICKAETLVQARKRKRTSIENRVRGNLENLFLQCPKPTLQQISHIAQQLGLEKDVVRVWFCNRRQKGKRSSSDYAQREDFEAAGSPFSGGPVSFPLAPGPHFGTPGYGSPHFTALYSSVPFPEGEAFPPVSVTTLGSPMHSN

B1: 41B1细胞株所分泌的抗OCT3/4蛋白单克隆抗体 (antibody, mouse IgG2b, V domains shown)
VH: VKLQESGGGLVKPGGSLKLSCTASGFTFSTYAMSWVRQTPEKRLEWVAAINSNGGNTYYPDTVKDRFTISRDNAKNTLYLQMSSLRSDDTALYYCARDGYDYWGQGTTLTVSS
VL: DIVMTQDELSLPVSLGDQASISCRSSQSLVHSNGVTYLFWHLQRPGQSPKLLIYRVSNRFSGVPDRFSGSGSGTDFTLKISRVEAEDLGVYFCFQGTHVPFTFGTGTKLEIK
notes: also called OCT3/4(41B1); 41B1分泌的OCT3/4
B1: binds.
